Measurements as given in US20090123480A1 (REGENTS OF THE UNIVERSITY OF MICHIGAN, published 2009).
Non-standard residues stand in square brackets, D forms with d. No end group written: not given here. *: point of attachment. 5FAM = O=C1OC2(c3ccc(O)cc3Oc3cc(O)ccc32)c2ccc(C(=O)*)cc21; Abu = CC[C@H](N)C(=O)O

What was measured:
[1] = target: caspase-3 (UniProt P42574); test: cell-based or functional assay
[2] = target: caspase-7 (UniProt P55210); test: cell-based or functional assay
[3] = target: human XIAP protein (residues 120-356) (human) (UniProt P98170); test: fluorescence polarization competition against the Smac2-F tracer
[4] = target: T1, recombinant XIAP BIR3 protein of human XIAP (residues 241-356) fused to His-tag (human, UniProt P98170 241-356); test: fluorescence polarization, direct binding of the labelled peptide
T1 construct: range 241-356; not shown: His-tag
T1 sequence (P98170 241-356 limits assumed): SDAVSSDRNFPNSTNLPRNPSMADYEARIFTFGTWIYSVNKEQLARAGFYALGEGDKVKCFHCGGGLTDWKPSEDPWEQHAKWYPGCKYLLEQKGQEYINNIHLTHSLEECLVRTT

Sequence of caspase-3 (P42574 29-277 limits assumed): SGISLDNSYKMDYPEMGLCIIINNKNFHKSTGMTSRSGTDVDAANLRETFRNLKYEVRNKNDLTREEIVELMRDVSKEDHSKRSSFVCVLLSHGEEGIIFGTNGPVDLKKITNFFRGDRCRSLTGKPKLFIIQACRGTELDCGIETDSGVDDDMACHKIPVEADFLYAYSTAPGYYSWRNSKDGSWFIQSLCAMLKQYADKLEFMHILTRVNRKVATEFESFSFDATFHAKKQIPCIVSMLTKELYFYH
Sequence of human XIAP protein (residues 120-356) (human) (P98170 120-356 limits assumed): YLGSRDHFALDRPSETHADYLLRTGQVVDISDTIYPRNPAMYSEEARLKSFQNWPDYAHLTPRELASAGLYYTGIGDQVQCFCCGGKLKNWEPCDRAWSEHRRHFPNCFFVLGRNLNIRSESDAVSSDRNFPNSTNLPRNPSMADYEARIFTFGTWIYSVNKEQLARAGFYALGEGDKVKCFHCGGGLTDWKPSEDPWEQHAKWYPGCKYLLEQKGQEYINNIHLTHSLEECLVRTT
Sequence of caspase-7 (P55210 24-303 limits assumed): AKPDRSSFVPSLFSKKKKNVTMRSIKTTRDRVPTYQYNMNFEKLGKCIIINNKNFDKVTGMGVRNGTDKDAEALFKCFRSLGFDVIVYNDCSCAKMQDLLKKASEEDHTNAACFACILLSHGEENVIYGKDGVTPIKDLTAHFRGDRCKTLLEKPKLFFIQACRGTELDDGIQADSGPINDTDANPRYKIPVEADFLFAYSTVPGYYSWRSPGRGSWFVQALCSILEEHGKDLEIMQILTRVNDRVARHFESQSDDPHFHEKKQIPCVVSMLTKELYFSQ

human XIAP protein (residues 120-356) (from UniProt P98170 120-356)
inhibition of caspase-3/-7 activity, cell-free functional assay [1]: 50 nM | inhibition of caspase-3/-7 activity, cell-free functional assay [2]: 50 nM

natural Smac peptide AVPI (SEQ ID NO: 1)
fold less potent than the small molecule SH-164 (IC50 […] nM) in the competitive binding assay [3]: > 5000 fold

B1: mutated Smac peptide AbuRPF-K-(5-Fam)-NH2 (termed SM5F) (peptide)
peptide: [Abu]RPFK(5FAM)-NH2
modifications: N-terminus assumed
SMILES: CC[C@H](N)C(=O)N[C@@H](CCCNC(=N)N)C(=O)N1CCC[C@H]1C(=O)N[C@@H](Cc1ccccc1)C(=O)N[C@@H](CCCCNC(=O)c1ccc2c(c1)C(=O)OC21c2ccc(O)cc2Oc2cc(O)ccc21)C(N)=O
notes: Fluorescent tracer of the XIAP BIR3 fluorescence polarization assay; also called SM5F peptide
Kd [4]: 17.9 nM
